Test results from the supplement of paper PMC9112550, “Optimization of the antimicrobial peptide Bac7 by deep mutational scanning” (BMC Biology, 2022).

The sequences below were run on Escherichia coli TOP10 (assay: shrunken log2 fold change of peptide-encoding DNA abundance (4.5 h post-induction vs induction); higher = less antimicrobial activity (less host growth inhibition)). Settings: time post-induction: 4.5 h; library: site-saturation at positions 5, 18, 19, 20.
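Also: peptides expressed intracellularly from a pBAD plasmid library in pooled LB shake-flask culture, induced with 0.3% L-arabinose, DNA abundance read by NGS, three biological replicates, DESeq2 with apeglm shrinkage.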

Q: How did the “shrunken log2 fold change” value turn out when RRIRKRPPRLPRPRPRPFEPPRP was run?
A: 0.00335

Q: With RRIRGRPPRLPRPRPRPICLPRP as the sequence, how does the “shrunken log2 fold change” value read?
A: 0.277

Q: With RRIRKRPPRLPRPRPRPVVDPRP as the sequence, how does the “shrunken log2 fold change” value read?
A: -0.0213

Q: RRIRMRPPRLPRPRPRPNHKPRP was tested. Which “shrunken log2 fold change” value did it give?
A: -0.391

Q: Which “shrunken log2 fold change” value does the source give for RRIRCRPPRLPRPRPRPSPAPRP here?
A: 1.35

Q: RRIRSRPPRLPRPRPRPFCVPRP was tested. Which “shrunken log2 fold change” value did it give?
A: -0.128

Q: RRIRGRPPRLPRPRPRPKSMPRP was tested. Which “shrunken log2 fold change” value did it give?
A: 0.366

Q: With RRIRHRPPRLPRPRPRPHLRPRP as the sequence, how does the “shrunken log2 fold change” value read?
A: -0.0385

Q: For RRIRLRPPRLPRPRPRPWNSPRP, which “shrunken log2 fold change” value is on record?
A: -0.018

Q: With RRIRTRPPRLPRPRPRPKQVPRP as the sequence, how does the “shrunken log2 fold change” value read?
A: -0.0584

Q: RRIRARPPRLPRPRPRPRLEPRP was tested. Which “shrunken log2 fold change” value did it give?
A: 0.766

Q: With RRIRTRPPRLPRPRPRPAHWPRP as the sequence, how does the “shrunken log2 fold change” value read?
A: 0.882

Q: RRIRLRPPRLPRPRPRPTHDPRP was tested. Which “shrunken log2 fold change” value did it give?
A: 0.324

Q: With RRIRARPPRLPRPRPRPLGPPRP as the sequence, how does the “shrunken log2 fold change” value read?
A: 0.337

Q: RRIRERPPRLPRPRPRPTHNPRP was tested. Which “shrunken log2 fold change” value did it give?
A: -0.206

Q: For RRIRYRPPRLPRPRPRPHKDPRP, which “shrunken log2 fold change” value is on record?
A: -0.428

Q: RRIRFRPPRLPRPRPRPYDIPRP was tested. Which “shrunken log2 fold change” value did it give?
A: -0.0365

Q: With RRIRMRPPRLPRPRPRPFWDPRP as the sequence, how does the “shrunken log2 fold change” value read?
A: 0.359

Q: How did the “shrunken log2 fold change” value turn out when RRIRQRPPRLPRPRPRPLFFPRP was run?
A: -0.00141

Q: How did the “shrunken log2 fold change” value turn out when RRIRSRPPRLPRPRPRPEDLPRP was run?
A: -0.0115

Q: How did the “shrunken log2 fold change” value turn out when RRIRMRPPRLPRPRPRPMHCPRP was run?
A: 0.0428

Q: How did the “shrunken log2 fold change” value turn out when RRIRLRPPRLPRPRPRPMPPPRP was run?
A: 0.15

Q: RRIRPRPPRLPRPRPRPWAWPRP was tested. Which “shrunken log2 fold change” value did it give?
A: 0.0719

Q: For RRIRGRPPRLPRPRPRPSNVPRP, which “shrunken log2 fold change” value is on record?
A: 0.175

Q: For RRIRPRPPRLPRPRPRPYAHPRP, which “shrunken log2 fold change” value is on record?
A: -0.0338

Q: Which “shrunken log2 fold change” value does the source give for RRIRARPPRLPRPRPRPRQQPRP here?
A: 0.277

Q: With RRIRLRPPRLPRPRPRPHNYPRP as the sequence, how does the “shrunken log2 fold change” value read?
A: -0.749

Q: Which “shrunken log2 fold change” value does the source give for RRIRDRPPRLPRPRPRPECCPRP here?
A: 0.828

Q: For RRIRPRPPRLPRPRPRPFEQPRP, which “shrunken log2 fold change” value is on record?
A: -0.281

Q: For RRIRWRPPRLPRPRPRPCLQPRP, which “shrunken log2 fold change” value is on record?
A: -0.21

Q: RRIRVRPPRLPRPRPRPNLWPRP was tested. Which “shrunken log2 fold change” value did it give?
A: -0.0401

Q: RRIRQRPPRLPRPRPRPEIVPRP was tested. Which “shrunken log2 fold change” value did it give?
A: 0.143

Q: For RRIRTRPPRLPRPRPRPRWRPRP, which “shrunken log2 fold change” value is on record?
A: 0.483

Q: For RRIRPRPPRLPRPRPRPASTPRP, which “shrunken log2 fold change” value is on record?
A: 0.11

Q: Which “shrunken log2 fold change” value does the source give for RRIRGRPPRLPRPRPRPMKKPRP here?
A: 1.17

Q: RRIRERPPRLPRPRPRPDIPPRP was tested. Which “shrunken log2 fold change” value did it give?
A: -0.366

Q: With RRIRIRPPRLPRPRPRPACSPRP as the sequence, how does the “shrunken log2 fold change” value read?
A: -0.129

Q: For RRIRDRPPRLPRPRPRPILPPRP, which “shrunken log2 fold change” value is on record?
A: 0.0106

Q: Which “shrunken log2 fold change” value does the source give for RRIRFRPPRLPRPRPRPVAMPRP here?
A: -0.0306

Q: With RRIRMRPPRLPRPRPRPAPGPRP as the sequence, how does the “shrunken log2 fold change” value read?
A: 2.04

Q: RRIRIRPPRLPRPRPRPPKTPRP was tested. Which “shrunken log2 fold change” value did it give?
A: -0.00537

Q: Which “shrunken log2 fold change” value does the source give for RRIRIRPPRLPRPRPRPLKSPRP here?
A: -0.325

Q: With RRIRPRPPRLPRPRPRPYIPPRP as the sequence, how does the “shrunken log2 fold change” value read?
A: -0.719

Q: With RRIRIRPPRLPRPRPRPESCPRP as the sequence, how does the “shrunken log2 fold change” value read?
A: -0.0796

Q: RRIRSRPPRLPRPRPRPKPIPRP was tested. Which “shrunken log2 fold change” value did it give?
A: 0.271

Q: For RRIRCRPPRLPRPRPRPGWSPRP, which “shrunken log2 fold change” value is on record?
A: -0.0169

Q: For RRIRQRPPRLPRPRPRPKFCPRP, which “shrunken log2 fold change” value is on record?
A: -0.0186

Q: RRIRNRPPRLPRPRPRPPHVPRP was tested. Which “shrunken log2 fold change” value did it give?
A: 0.147

Q: RRIRERPPRLPRPRPRPTYNPRP was tested. Which “shrunken log2 fold change” value did it give?
A: -0.908

Q: With RRIRNRPPRLPRPRPRPKYWPRP as the sequence, how does the “shrunken log2 fold change” value read?
A: -0.387

Q: Which “shrunken log2 fold change” value does the source give for RRIRNRPPRLPRPRPRPTAWPRP here?
A: -0.0125

Q: With RRIRDRPPRLPRPRPRPEHQPRP as the sequence, how does the “shrunken log2 fold change” value read?
A: -0.012

Q: RRIRSRPPRLPRPRPRPFDNPRP was tested. Which “shrunken log2 fold change” value did it give?
A: 0.0211

Q: With RRIRGRPPRLPRPRPRPFDHPRP as the sequence, how does the “shrunken log2 fold change” value read?
A: -0.0514

Q: Which “shrunken log2 fold change” value does the source give for RRIRHRPPRLPRPRPRPRFEPRP here?
A: 0.185

Q: RRIRCRPPRLPRPRPRPQNAPRP was tested. Which “shrunken log2 fold change” value did it give?
A: -0.372

Q: Which “shrunken log2 fold change” value does the source give for RRIRCRPPRLPRPRPRPEVDPRP here?
A: 0.0462

Q: For RRIRNRPPRLPRPRPRPNCPPRP, which “shrunken log2 fold change” value is on record?
A: -0.361

Q: With RRIRERPPRLPRPRPRPGAKPRP as the sequence, how does the “shrunken log2 fold change” value read?
A: 0.188

Q: With RRIRHRPPRLPRPRPRPNFCPRP as the sequence, how does the “shrunken log2 fold change” value read?
A: -0.0463

Q: Which “shrunken log2 fold change” value does the source give for RRIRKRPPRLPRPRPRPEIIPRP here?
A: -0.0419

Q: RRIRIRPPRLPRPRPRPPGLPRP was tested. Which “shrunken log2 fold change” value did it give?
A: 0.204

Q: RRIRRRPPRLPRPRPRPNHAPRP was tested. Which “shrunken log2 fold change” value did it give?
A: 0.345

Q: Which “shrunken log2 fold change” value does the source give for RRIRNRPPRLPRPRPRPVMKPRP here?
A: 0.0939

Q: For RRIRDRPPRLPRPRPRPQIVPRP, which “shrunken log2 fold change” value is on record?
A: -0.00245

Q: For RRIRDRPPRLPRPRPRPIPYPRP, which “shrunken log2 fold change” value is on record?
A: -0.0147

Q: RRIRERPPRLPRPRPRPPLIPRP was tested. Which “shrunken log2 fold change” value did it give?
A: -0.435

Q: RRIRTRPPRLPRPRPRPRDAPRP was tested. Which “shrunken log2 fold change” value did it give?
A: 0.881

Q: For RRIRCRPPRLPRPRPRPKKAPRP, which “shrunken log2 fold change” value is on record?
A: -0.235

Q: How did the “shrunken log2 fold change” value turn out when RRIRPRPPRLPRPRPRPCYEPRP was run?
A: -0.195

Q: With RRIRARPPRLPRPRPRPMTIPRP as the sequence, how does the “shrunken log2 fold change” value read?
A: -0.113

Q: How did the “shrunken log2 fold change” value turn out when RRIRRRPPRLPRPRPRPKQWPRP was run?
A: 0.294

Q: For RRIRVRPPRLPRPRPRPQMSPRP, which “shrunken log2 fold change” value is on record?
A: -0.233

Q: For RRIRIRPPRLPRPRPRPVRWPRP, which “shrunken log2 fold change” value is on record?
A: 0.474

Q: For RRIRQRPPRLPRPRPRPRFWPRP, which “shrunken log2 fold change” value is on record?
A: 0.23

Q: RRIRMRPPRLPRPRPRPSMTPRP was tested. Which “shrunken log2 fold change” value did it give?
A: 2.18

Q: RRIRVRPPRLPRPRPRPGTCPRP was tested. Which “shrunken log2 fold change” value did it give?
A: 0.0803

Q: Which “shrunken log2 fold change” value does the source give for RRIRERPPRLPRPRPRPKATPRP here?
A: 0.205

Q: With RRIRMRPPRLPRPRPRPMQIPRP as the sequence, how does the “shrunken log2 fold change” value read?
A: 0.0553

Q: For RRIRDRPPRLPRPRPRPPEYPRP, which “shrunken log2 fold change” value is on record?
A: -0.0893

Q: With RRIRERPPRLPRPRPRPFVDPRP as the sequence, how does the “shrunken log2 fold change” value read?
A: -0.0208

Q: Which “shrunken log2 fold change” value does the source give for RRIRPRPPRLPRPRPRPKTGPRP here?
A: 0.186

Q: RRIRPRPPRLPRPRPRPLPRPRP was tested. Which “shrunken log2 fold change” value did it give?
A: 0.443

Q: How did the “shrunken log2 fold change” value turn out when RRIRGRPPRLPRPRPRPPTTPRP was run?
A: 0.91

Q: How did the “shrunken log2 fold change” value turn out when RRIRNRPPRLPRPRPRPAYCPRP was run?
A: -0.0951

Q: Which “shrunken log2 fold change” value does the source give for RRIRLRPPRLPRPRPRPLDQPRP here?
A: 0.105

Q: RRIRRRPPRLPRPRPRPDKVPRP was tested. Which “shrunken log2 fold change” value did it give?
A: -0.053

Q: How did the “shrunken log2 fold change” value turn out when RRIRTRPPRLPRPRPRPGQEPRP was run?
A: -0.184

Q: With RRIRRRPPRLPRPRPRPVNQPRP as the sequence, how does the “shrunken log2 fold change” value read?
A: 0.129

Q: How did the “shrunken log2 fold change” value turn out when RRIRLRPPRLPRPRPRPGSCPRP was run?
A: 0.0403

Q: How did the “shrunken log2 fold change” value turn out when RRIRDRPPRLPRPRPRPHAWPRP was run?
A: 0.1

Q: With RRIRDRPPRLPRPRPRPAYWPRP as the sequence, how does the “shrunken log2 fold change” value read?
A: -0.0729

Q: With RRIRCRPPRLPRPRPRPGKQPRP as the sequence, how does the “shrunken log2 fold change” value read?
A: -0.106

Q: With RRIRYRPPRLPRPRPRPIHPPRP as the sequence, how does the “shrunken log2 fold change” value read?
A: -0.418

Q: For RRIRTRPPRLPRPRPRPFGQPRP, which “shrunken log2 fold change” value is on record?
A: -0.0675

Q: With RRIRGRPPRLPRPRPRPAGAPRP as the sequence, how does the “shrunken log2 fold change” value read?
A: 1.16

Q: With RRIRRRPPRLPRPRPRPDCEPRP as the sequence, how does the “shrunken log2 fold change” value read?
A: 0.363

Q: For RRIRFRPPRLPRPRPRPNQWPRP, which “shrunken log2 fold change” value is on record?
A: -0.21

Q: Which “shrunken log2 fold change” value does the source give for RRIRDRPPRLPRPRPRPLFHPRP here?
A: -0.152

Q: Which “shrunken log2 fold change” value does the source give for RRIRDRPPRLPRPRPRPWGGPRP here?
A: 0.422

Q: RRIRMRPPRLPRPRPRPSARPRP was tested. Which “shrunken log2 fold change” value did it give?
A: 1.07

Q: For RRIRTRPPRLPRPRPRPISRPRP, which “shrunken log2 fold change” value is on record?
A: -0.0253

Q: Which “shrunken log2 fold change” value does the source give for RRIRERPPRLPRPRPRPGYIPRP here?
A: -0.709

Q: For RRIRPRPPRLPRPRPRPLEKPRP, which “shrunken log2 fold change” value is on record?
A: 0.261

Q: With RRIRCRPPRLPRPRPRPILWPRP as the sequence, how does the “shrunken log2 fold change” value read?
A: 0.0346

Q: With RRIRGRPPRLPRPRPRPLCVPRP as the sequence, how does the “shrunken log2 fold change” value read?
A: 0.689

Q: For RRIRKRPPRLPRPRPRPCLDPRP, which “shrunken log2 fold change” value is on record?
A: -0.173

Q: With RRIRKRPPRLPRPRPRPQRIPRP as the sequence, how does the “shrunken log2 fold change” value read?
A: 0.0286

Q: With RRIRCRPPRLPRPRPRPMPKPRP as the sequence, how does the “shrunken log2 fold change” value read?
A: 0.0972
